For this experiment, the target named is HLA-A*0201 on the surface of T2 cells (human). Put plainly: T2 peptide binding assay, W6/32-FITC flow cytometry. For orientation: In flow cytometry, cells or beads pass a laser one at a time.

With VRSLVEFTCCRAGAL (modifications not checked) [F protein peptide F29-43], the peak fluorescence, % of the level obtained with NS3 1406-1415 came to 87.6%.
As to CCRAGALDWVCARRE (modifications not checked) [F protein peptide F37-51], the peak fluorescence, % of the level obtained with NS3 1406-1415 is 79.2%.
The figure for PVALGLAGAPQTPGV (modifications not checked) [F protein peptide F101-115] is 83.2%.

(Values after patent US20090239794A1, “HCV F PROTEIN AND USES THEREOF” (priority 2004, published 2009).)
